The data set can be described thus: soluble on expression in E. coli; label from the status in PepcDB or PDB records.
Regarding “MNVGILGIGRYVPEKVVTNHDLEKIMDTSDEWIRTRTGIAERRIADDTIDTSYMAVEASKKALEDAGISGEDIDLILVATVTPDRAFPAVACVIQEAIGAKHAAAMDLSAACAGFMYGMITAQQFIQTGTYKNVLVVGSDKLSKIVDWNDRNTAVLFGDGAGAIVMGAVSEGKGVLSFELGADGSGGKHLYQDEYVMMNGREVFKFAVRQLGDSCLRVLDKAGLTKEDVDFLVPHQANIRIMESARERLNLPQEKMSMTIEKFGNTSASSIPIAMVEELQNGRIQDGDLIILVGFGGGLTWGAVALRWGK”, the “soluble on expression in E. coli” value was “not soluble”.

For the sequence “MNVINETANVLKLETGSVTSAKGFSAVGIHTGVKRKRKDLGAIVCEVPASSAAVYTLNKVQAAPLKVTQESIAVEGKLQAMIVNSGIANACTGKRGLDDAYTMRAVGAETFHIPEHYVAVTSTGVIGEFLPMDVITNGIRQLKPEATIEGAHAFNEAILTTDTVEKHTCYQTIVNGKTVTVGGVAKGSGMIHPNMATMLSFVTTDANIDHGHLQGALSAITNETFNRITVDGDTSTNDMVVVMASGLAENEALTPEHPDWANFYKALQLACEDLAKQIARDGEGATKLIEVEVTGAANDQEAGMVAKQIVGSDLVKTAIYGADANWGRIICAIGYSGCEVNQETIDIAIGPIVTLKQSEPTGFSEEEATAYLKEADPVKISVNLHIGNGTGKAWGCDLTYDYVRINAGYRTLEHHHHHH”, the “soluble on expression in E. coli” value is “not soluble”. The entry for “MNVIRTEIEDVLILEPRVFGDDRGFFYESFNQSAFEHILGYPVSFVQDNHSRSSKNVLRGLHFQRGEYAQDKLVRCTHGAVFDVAVDIRPNSVSFGKWVGVLLSADNKQQLWIPKGFAHGFLVLSDIAEFQYKTTNYYHPESDCGICWNDERIAIDWPQTSGLILSPKDERLFTLDELIRLKLIA” is “not soluble”. The entry for “MNVMMQKVHGSENDFFLLDETQFERSLTAEEIEQLRIQLCSRETGLLAGADGLLLVGEGTHGTSNARMRVINSDGSEASMCGNGLRTVARYLAEKNQEKSFTVETMFADLKVRQAPNLAEEVATYQVEISPVSFEAVTIPMHLGVQTLIDEIVPALSNTIRFTAVAVPNPHLVAFVDHETLNGPEFERIATYVNNENPYFPEGINVSFVEILGKNQLFVRTYERGVGFTSACGTAMCASSLLYTLLKDGVFYEEITVKNTGGMVKTVVHETSDGSYWMELIGNATITHLIEGSLTDLLNGAFEKITITETNEQKHYQEFLQTLSQK” is “not soluble”; for “MNWNKRLLDTPIIGDITKKIVSAKASREAHNISDHFTQFLQPCVAVSQTLKEEAFKIRHNVYCEELAFEEVRDNGQETDEFDHQSMFSLIKHKPSGTFTSCVRLVTSSGPDELLPIEKYCMGSITNEELSPKRFNRNEIAEISRLAVKSDFRRRKADNYKGSGTGVISEITYSETELRCFPFIAIGLYMAAATMSMNTGIRHVYVMMEPRLARSMKFIGINFQQLGPPVDYHGLRAPYYINPEIFMKNLSPGFKSLFSIIEEDICSQLNQLDLA” it is “not soluble”. Consider “MNYHQYYPIDVVNGPGTRCTLFVSGCVHQCKGCYNQSTWSLSSGHRYTQEMEDKIIADLKDTRIKRRGLSLSGGDPMHPANLSAVLQLVQRVKTECPDKDIWLWTGYTLAELDDSQQALLPYIDVLVDGKFIQEQADPGLEWRGSANQVIHRFTLLEHHHHHH”, for which the “soluble on expression in E. coli” value is given as “not soluble”.

For “MNYKADIGVFGGSGFYSFLENVEEIEMETPYGKPSDKIAIATYEGKRIAFLPRHGKNHQFPPHMIPYRANLYAMKKLGVKKILAPTSSGSLRADIKPGDFVICDQFVDRTTGRKDTFYDGPVTKHISSAHPYCPELRKIAIQVGKDLGITTHEKGTVVVIQGPRFSTVAESRWFSKMGWDVINMTQYPEVYLARELGICYANIALITDYDAGLEGRDDIEPVTEEAVLKVFAENNEKVKNMLFEVIKRIDLENSNCTCCNVDLSGLDL”, the “soluble on expression in E. coli” value was “soluble”.

As to “MPAIEVGRICVKVKGREAGSKCVIVDIIDDNFVLVTGPKDITGVKRRRVNILHLEPTDKKIDIQKGASDEEVKKKLEESNLTEYMKEKIKIRMPTL”, the “soluble on expression in E. coli” value was “soluble”. As to “MPASYLHHRSVTQQLPIMSTPHTDFFGLTIPFMQLLGVVPEHSGNGTARTRLPARADLVNSRGDIHGGTLMSVLDFTLGAAIRGDTPEVGVATIDMNTSFMSPGRGDLVIETRCLRRGASIAFCEGEIRDSAGELVAKATATFKIIQRRPGLEHHHHHH”, the “soluble on expression in E. coli” value is reported as “soluble”. In the case of “MPAVTQPRGESKYDAIPGPLGPQSASLEGKVALVTGAGRGIGREMAMELGRRGCKVIVNYANSTESAEEVVAAIKKNGSDAACVKANVGVVEDIVRMFEEAVKIFGKLDIVCSNSGVVSFGHVKDVTPEEFDRVFTINTRGQFFVAREAYKHLEIGGRLILMGSITGQAKAVPKHAVYSGSKGAIETFARCMAIDMADKKITVNVVAPGGIKTDMYHAVCREYIPNGENLSNEEVDEYAAVQWSPLRRVGLPIDIARVVCFLASNDGGWVTGKVIGIDGGACM”, the “soluble on expression in E. coli” value is given as “soluble”. Consider “MPDEIYLFTPKGKIFALPKNSTALDFAYAVHTDIGNHAVTSRVDKQLMPLRTKLSSGQTVEIITARSALPKPQWLEHHHHHH”, for which the “soluble on expression in E. coli” value is reported as “not soluble”.

With “MPDRLQLLEERLVVNKDRFKAGSVQIGKRIETRQETVSVPLQREEVVIERHAVTDGRAVEGAVLGEGHQTMSVDLEAERANISKQAYVTEEVSVGKRAVTETQQVTETVGREVLDVNQTGDVRLEHHHHHH”, the “soluble on expression in E. coli” value is given as “not soluble”. The entry for “MPDSDTGSNMAHTMTAAVQQAQGVDNPDDLAAVAMALATGAVKGARGNSGVVLSQVLRGIAHHADSGRIDAHVIQEALRSSLDFVAAAISDPVEGTVITVLRAAAIAATNSEDRSLAAVVSVAAHAARIALAETPSQLQVLRDAKVVDAGGQGLVILLDCLEHVVTGTATSYDPHIIETTEQQQSHGTSGYLEVMCFIAGVEVSHLHDLLAPLGDCLVIGPISDTSATVHIHSTDAATVISTLYATGTITDLHIEVLPETPKVVHPKRIVLALTPPGDLAQLYTDAGALVVVRDGHHFAIARSTNLGQAETPLADGIEIVNELVARSHQSGAQEVILLPNGLLTTQEMAAVERSSQAFKQSITMLPTGSLVRGLAALSVHDPQQSLAVATYAMTEAMSGMRTAVIERAEHAALTPAGACAKGDLLVHLGTEPIAVAEQPEEALRIACRRLLDIGGEQILILARKELALTPDNHSLTGPHTDVEINQYDVDRLGALIEIGVE” is “not soluble”; for “MPEDVKNFYLMTNGFHMTWSVKLDEHIIPLGSMAINSISKLTQLTQSSMYSLPNAPTLADLEDDTHEASDDQPEKPHFDSRSVIFELDSCNGSGKVCLVYKSGKPALAEDTEIWFLDRALYWHFLTDTFTAYYRLLITHLGLPQWQYAFTSYGISPQAKVREEHLPL” it is “not soluble”. Take “MPEILKIKPTRMELLKLKRRVKLAERGHKLLKEKQDALIMEFFTIYDEALSLRRELIRKMEEAFNSLRRAQVDVGALRLKEIAIGVKPNKEIEIKTRNIMGVRVPLIEVPELKRKASERGYAFVSTTSTVDMAAEKFEEVLELAIRLAEVEESLKRLGKEIEKTKRRVNALEYIIIPRMENTIKFIEQHLDEMERENFFRLKRVKAILEARQSMLEHHHHHH”: the “soluble on expression in E. coli” value is given as “soluble”.

On to “MPETELHVIFDQPNEVFFPGQPISGRVVLSTTEEKYKARAVNIKILGLAHTSWTDYDSVRRVDNDGNVRYDSESVHYSSNVHYLDQALLLWACKDGSNELSAGDYVWPFSYTLPLNVPPSFEGKYGYLRYSVTAEVDRPWRLDKAKRRCITVSPLIDLNAIPLALTPIDDEESENLGCCFFRKGYLELRVNIPKTGFVPGETVPMNIHILNHSSVPVTEVKAKIIQQCKFIAYRNGTIFRFDGGSDTLMSGSSQQTKYDTKPVITQTQPMTVTPGNEHKFVLEFRLPSVTPTICRFSPVITVEYVVQVRVETTSTCGSAAKCEMPILIGTVPIRNYLPPPIPNNYPIGLPPPYANLTDVNVPCPSGGSGTAVIPSAPPPSYQESMYGVGGTELRAEENEKPFAPKYPVFNNLPIYNPTAPPSE”, for which the “soluble on expression in E. coli” value is on record as “not soluble”.

For “MPFIAAMWHGQHIMISFMSRPQDRVATIISRSPDGNINTMALTRMGVRVMRASGARGRAVKDARAKGGAEGLRAMVKALKGGETVAFSADVPKVSRVCLEHHHHHH”, the “soluble on expression in E. coli” value was “not soluble”. The entry for “MPGPILKKCFNCRVALPEDAINTAQCQKCQKNEAKYGKPGTCQYCKLNAAFHDQKCVWCSHAERKFGNPFPCANCKLSCAFPRRESDKVEGAALLCRLCILQARHTNQTVVAGIPVPPEKPERSGEGSSTEQRDRDHRQHRPTSHHHRDHKDHHRRDDKHHHRDSNHRHAHKRRHQEEPNNNSNNGTSSSGGAPPLVPNNENGNGFPPFGDRDPGESMVKQQKMEDEIRRLKTLLAEKDQLIFDKDKQISNLKADQYNLDKKHRERVQQLIKEKEDSIRAIEQMRNSKSSKRN” is “not soluble”. The entry for “MPGSDAGPRRRGVHEQRRNRMSNEAKCPFHQAAQNGTSNRDWWPNQLDLSILHRHSSLSDPMGKDFNYAQAFEKLDLAAVKRDLHALMTTSQDWWPADFGHYGGLFIRMAWHSAGTYRTADGRGGAGEGQQRFAPLNSWPDNANLDKARRLLWPIKQKYGRAISWADLLILTGNVALESMGFKTFGFAGGRADTWEPEDVYWGSEKIWLELSGGPNSRYSGDRQLENPLAAVQMGLIYVNPEGPDGNPDPVAAARDIRDTFARMAMNDEETVALIAGGHTFGKTHGAGPASNVGAEPEAAGIEAQGLGWKSAYRTGKGADAITTGLEVTWTTTPTQWSHNFFENLFGYEWELTKSPAGAHQWVAKGADAVIPDAFDPSKKHRPTMLTTDLSLRFDPAYEKISRRFHENPEQFADAFARAWFKLTHRDMGPRARYLGPEVPAEVLLWQDPIPAVDHPLIDAADAAELKAKVLASGLTVSQLVSTAWAAASTFRGSDKRGGANGARIRLAPQKDWEANQPEQLAAVLETLEAIRTAFNGAQRGGKQVSLADLIVLAGCAGVEQAAKNAGHAVTVPFAPGRADASQEQTDVESMAVLEPVADGFRNYLKGKYRVPAEVLLVDKAQLLTLSAPEMTVLLGGLRVLGANVGQSRHGVFTAREQALTNDFFVNLLDMGTEWKPTAADADVFEGRDRATGELKWTGTRVDLVFGSHSQLRALAEVYGSADAQEKFVRDFVAVWNKVMNLDRFDLA” is “soluble”; for “MPKNKGKGGKNRRRGKNENDFMKRELDLKEEGQEYGQVSKMLGNGRVQVFCFDGKQRVCHIRGKLRKKVWINVGDIILVGLRDYQDDKGDVILKYTPDEARRLKNEGLIPENAKLNENDEQDEGEVEFLDHVGDEGEAGEAKSDSDSSDSDSEKSDEEAGSDKEEESDDDSEEESDEDSDDSDNIREEDLAAGRGFKEDTRRGGNRGGKNKYGKRR” it is “soluble”.

Values taken from the DeepSol protein solubility set.
